This experiment has as its target T1, wild-type YoeB toxin, YoeB(His)6 (Escherichia coli, UniProt P69348).
T1 sequence: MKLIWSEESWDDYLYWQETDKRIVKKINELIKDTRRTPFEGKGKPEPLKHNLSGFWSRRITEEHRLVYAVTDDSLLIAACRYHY
Briefly: pull-down.

From publication PMC6821326 (Nucleic Acids Research, 2019) come the findings set out here.

B1: YefM antitoxin (natural protein)
chain: MRTISYSEARQNLSATMMKAVEDHAPILITRQNGEACVLMSLEEYNSLEETAYLLRSPANARRLMDSIDSLKSGKGTEKDIIE
For B1, the binding result is listed as “binds”.
